Patent US20220089702A1 (published 2022)

Molecular target: recombinant human tau
Assay: SPR

B1: 7G6 (antibody, V domains shown)
VH: EVQLQQSGAELVRPGALVKLSCKASGFNIKDYYIHWVKQRPEQGLEWIGWIDPENGETVYDPKFQGKASITSDTSSNTAYLQLRSLTSEDTAVYYSTSLDFWGQGTSVTVSS
VL: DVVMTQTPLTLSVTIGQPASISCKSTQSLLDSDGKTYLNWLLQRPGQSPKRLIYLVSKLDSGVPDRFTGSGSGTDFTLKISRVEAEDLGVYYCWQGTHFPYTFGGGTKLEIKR
- Kd: 5.77 nM
